The target of this assay is LDL receptor on normal human fibroblasts (human) (UniProt P01130). Put plainly: competition with 125I-labeled human plasma LDL (2 µg/ml) for LDL receptors on normal human fibroblasts, 3 h at 4 °C.

In turn, “K3363E LDL (recombinant LDL, human apo-B100 with glutamic acid for lysine at residue 3363), P04114 28-4563” came in with an ED50 of 2.4 µg/mL.

Take “R3500Q LDL (recombinant LDL, human apo-B100 with glutamine for arginine at residue 3500), P04114 28-4563”: the ED50 is above 20 µg/mL.

The substance “RK3359-3369SA LDL (recombinant LDL, human apo-B100 with the arginines of Site B changed to serines and the lysines to alanines), P04114 28-4563” returned an ED50 above 20 µg/mL.

The substance “recombinant control LDL (human apo-B100 with leucine in place of glutamine at position 2153), P04114 28-4563” had an ED50 of 2.3 µg/mL.

(Values after patent US6933284.)
